# Reference: publication PMC11090907 (2024)
# Like-named read-outs stand apart in the source and are kept apart here.
# T1: RLuc8-L5-ALFA-tag
# T1 chain: SRLEEELRRRLTE
# T2: ALFA tag-human Fc
# T2 chain: SRLEEELRRRLTE
# T3: ALFA tag-human Fc
# T3 chain: SRLEEELRRRLTE
# B1: GFP2-L5-sdAbALFA WT S57A; E58S; R59G; R65D; D112V (protein)
# chain: EVQLQESGGGLVQPGGSLRLSCTASGVTISALNAMAMGWYRQAPGERRVMVAAVASGGNAMYDESVQGRFTVTRDFTNKMVSLQMDNLKPEDTAVYYCHVLEDRVDSFHVYWGQGTQVTVSS
# B2: GFP2-L5-sdAbALFA WT S57A; E58S; R59G (protein)
# chain: EVQLQESGGGLVQPGGSLRLSCTASGVTISALNAMAMGWYRQAPGERRVMVAAVASGGNAMYRESVQGRFTVTRDFTNKMVSLQMDNLKPEDTAVYYCHVLEDRVDSFHDYWGQGTQVTVSS
# B3: sdAb ALFA WT-TEV-His S57A; E58S; R59G; R65D (protein)
# chain: EVQLQESGGGLVQPGGSLRLSCTASGVTISALNAMAMGWYRQAPGERRVMVAAVASGGNAMYDESVQGRFTVTRDFTNKMVSLQMDNLKPEDTAVYYCHVLEDRVDSFHDYWGQGTQVTVSS
# B4: sdAb ALFA WT-TEV-His S57A; E58S (protein)
# chain: EVQLQESGGGLVQPGGSLRLSCTASGVTISALNAMAMGWYRQAPGERRVMVAAVASRGNAMYRESVQGRFTVTRDFTNKMVSLQMDNLKPEDTAVYYCHVLEDRVDSFHDYWGQGTQVTVSS
# B5: GFP2-L5-sdAbALFA WT E58S (protein)
# chain: EVQLQESGGGLVQPGGSLRLSCTASGVTISALNAMAMGWYRQAPGERRVMVAAVSSRGNAMYRESVQGRFTVTRDFTNKMVSLQMDNLKPEDTAVYYCHVLEDRVDSFHDYWGQGTQVTVSS
# B6: sdAb ALFA WT-TEV-His S57A; E58S; R59G; R65D; D112V (protein)
# chain: EVQLQESGGGLVQPGGSLRLSCTASGVTISALNAMAMGWYRQAPGERRVMVAAVASGGNAMYDESVQGRFTVTRDFTNKMVSLQMDNLKPEDTAVYYCHVLEDRVDSFHVYWGQGTQVTVSS
# B7: sdAb ALFA E-TEV-His (VHH)
# VHH: EVQLQESGGGLVQPGGSLRLSCTASGVTISALNAMAMGWYRQAPGERRVMVAAVSSRGNAMYRESVQGRFTVTRDFTNKMVSLQMDNLKPEDTAVYYCHVLEDRVDSFHDYWGQGTQVTVSS
# B8: sdAb ALFA WT-TEV-His S57A; E58S; R59G (protein)
# chain: EVQLQESGGGLVQPGGSLRLSCTASGVTISALNAMAMGWYRQAPGERRVMVAAVASGGNAMYRESVQGRFTVTRDFTNKMVSLQMDNLKPEDTAVYYCHVLEDRVDSFHDYWGQGTQVTVSS
# B9: sdAb ALFA WT-TEV-His (VHH)
# VHH: EVQLQESGGGLVQPGGSLRLSCTASGVTISALNAMAMGWYRQAPGERRVMVAAVSERGNAMYRESVQGRFTVTRDFTNKMVSLQMDNLKPEDTAVYYCHVLEDRVDSFHDYWGQGTQVTVSS
# B10: sdAb ALFA SER-TEV-His (VHH)
# VHH: EVQLQESGGGLVQPGGSLRLSCTASGVTISALNAMAMGWYRQAPGERRVMVAAVASGGNAMYRESVQGRFTVTRDFTNKMVSLQMDNLKPEDTAVYYCHVLEDRVDSFHDYWGQGTQVTVSS
# B11: sdAb ALFA SERR-TEV-His (VHH)
# VHH: EVQLQESGGGLVQPGGSLRLSCTASGVTISALNAMAMGWYRQAPGERRVMVAAVASGGNAMYDESVQGRFTVTRDFTNKMVSLQMDNLKPEDTAVYYCHVLEDRVDSFHDYWGQGTQVTVSS
# B12: sdAb ALFA WT-TEV-His E58S (protein)
# chain: EVQLQESGGGLVQPGGSLRLSCTASGVTISALNAMAMGWYRQAPGERRVMVAAVSSRGNAMYRESVQGRFTVTRDFTNKMVSLQMDNLKPEDTAVYYCHVLEDRVDSFHDYWGQGTQVTVSS
# B13: GFP2-L5-sdAbALFA WT S57A; E58S; R59G; R65D (protein)
# chain: EVQLQESGGGLVQPGGSLRLSCTASGVTISALNAMAMGWYRQAPGERRVMVAAVASGGNAMYDESVQGRFTVTRDFTNKMVSLQMDNLKPEDTAVYYCHVLEDRVDSFHDYWGQGTQVTVSS
# B14: sdAb ALFA SE-TEV-His (VHH)
# VHH: EVQLQESGGGLVQPGGSLRLSCTASGVTISALNAMAMGWYRQAPGERRVMVAAVASRGNAMYRESVQGRFTVTRDFTNKMVSLQMDNLKPEDTAVYYCHVLEDRVDSFHDYWGQGTQVTVSS
# B15: GFP2-L5-sdAbALFA WT S57A; E58S (protein)
# chain: EVQLQESGGGLVQPGGSLRLSCTASGVTISALNAMAMGWYRQAPGERRVMVAAVASRGNAMYRESVQGRFTVTRDFTNKMVSLQMDNLKPEDTAVYYCHVLEDRVDSFHDYWGQGTQVTVSS
# Experiments:
# RLuc8-L5-ALFA-tag = target: T1, RLuc8-L5-ALFA-tag; assay: BRET donor saturation assay; conditions: chain shown with the change, HEK293T cells, 37°C; for response: Acceptor/Donor ratio 20, parent: est. 26, read off a plot; for other: BRET50: parent: 1.4 ± 0.09; for other: BRETmax: parent: 28.4 ± 0.37
# ALFA tag-human Fc [1] = target: T2, ALFA tag-human Fc; assay: SPR; conditions: chain shown with the change; for Kd: room temperature, parent: 5.0 ± 0.07 pM; for response (Response Unit): sdAb at 50 nM, parent: est. 61, read off a plot
# ALFA tag-human Fc [2] = target: T3, ALFA tag-human Fc; assay: SPR
# ALFA tag-human Fc [3] = target: T3, ALFA tag-human Fc; assay: SPR
Binder,other: BRET50 (RLuc8-L5-ALFA-tag),other: BRETmax (RLuc8-L5-ALFA-tag),koff (ALFA tag-human Fc [2]) [s⁻¹],also measured
B1,12.4,3.3,–,response (RLuc8-L5-ALFA-tag): 2 BRET ratio
B2,5.2,26.4,–,–
B3,–,–,–,Kd (ALFA tag-human Fc [1]): 1130 nM; response (Response Unit) (ALFA tag-human Fc [1]): 3.8
B4,–,–,–,Kd (ALFA tag-human Fc [1]): 1.7 nM
B5,2.2,28.1,–,–
B6,–,–,–,response (Response Unit) (ALFA tag-human Fc [1]): 0
B7,–,–,0.0039,–
B8,–,–,–,Kd (ALFA tag-human Fc [1]): 2.4 nM; response (Response Unit) (ALFA tag-human Fc [1]): 57
B9,–,–,2.7e-05,Kd (ALFA tag-human Fc [3]): 5 pM
B10,–,–,0.011,–
B11,–,–,0.026,–
B12,–,–,–,Kd (ALFA tag-human Fc [1]): 0.8 nM
B13,9.3,14,–,response (RLuc8-L5-ALFA-tag): 9.5 BRET ratio
B14,–,–,0.0073,–
B15,6.2,26.7,–,–
